Measurements from patent US20240392271, “ENGINEERED CASX REPRESSOR SYSTEMS” (Scribe Therapeutics Inc., published 2024).

How the values were obtained:
ELXR3-ZIM3 (#3.A) = target: T1, ELXR3-ZIM3 (#3.A) (synthetic construct); assay: cell_activity; PAM TTC; day 50; settings: tags: DNMT3A CD, DNMT3L ID, ZIM3 KRAB fusion, NLS
T1 chain: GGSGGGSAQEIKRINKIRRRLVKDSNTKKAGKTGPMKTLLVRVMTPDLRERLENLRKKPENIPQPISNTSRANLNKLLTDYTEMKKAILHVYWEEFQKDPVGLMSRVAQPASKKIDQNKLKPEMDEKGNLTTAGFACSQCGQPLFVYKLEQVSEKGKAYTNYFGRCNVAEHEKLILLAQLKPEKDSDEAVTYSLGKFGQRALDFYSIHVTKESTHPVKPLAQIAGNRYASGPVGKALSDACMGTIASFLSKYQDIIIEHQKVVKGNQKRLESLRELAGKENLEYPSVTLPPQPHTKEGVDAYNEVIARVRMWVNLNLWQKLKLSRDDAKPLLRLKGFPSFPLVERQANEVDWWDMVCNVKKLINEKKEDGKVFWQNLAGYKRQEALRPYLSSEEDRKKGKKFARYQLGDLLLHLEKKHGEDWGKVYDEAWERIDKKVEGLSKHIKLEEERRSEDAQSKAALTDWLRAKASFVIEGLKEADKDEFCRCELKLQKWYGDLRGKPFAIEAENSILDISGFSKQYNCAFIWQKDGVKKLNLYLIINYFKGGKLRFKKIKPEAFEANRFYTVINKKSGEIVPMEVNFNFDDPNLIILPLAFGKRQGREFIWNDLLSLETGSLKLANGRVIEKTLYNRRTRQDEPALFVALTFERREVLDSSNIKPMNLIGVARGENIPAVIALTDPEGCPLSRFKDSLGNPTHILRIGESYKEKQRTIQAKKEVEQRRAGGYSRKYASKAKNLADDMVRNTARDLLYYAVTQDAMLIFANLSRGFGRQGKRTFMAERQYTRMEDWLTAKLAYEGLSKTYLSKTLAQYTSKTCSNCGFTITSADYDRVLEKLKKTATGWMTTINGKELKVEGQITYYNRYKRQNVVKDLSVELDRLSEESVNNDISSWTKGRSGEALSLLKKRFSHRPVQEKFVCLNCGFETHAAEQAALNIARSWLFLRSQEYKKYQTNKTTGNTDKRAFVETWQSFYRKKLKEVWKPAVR

ELXR4-ZNF10 (#4.B) = target: T2, ELXR4-ZNF10 (#4.B) (synthetic construct); assay: cell_activity; PAM TTC; day 73; settings: tags: DNMT3A CD, DNMT3L ID, ZNF10 KRAB fusion, NLS
T2 chain: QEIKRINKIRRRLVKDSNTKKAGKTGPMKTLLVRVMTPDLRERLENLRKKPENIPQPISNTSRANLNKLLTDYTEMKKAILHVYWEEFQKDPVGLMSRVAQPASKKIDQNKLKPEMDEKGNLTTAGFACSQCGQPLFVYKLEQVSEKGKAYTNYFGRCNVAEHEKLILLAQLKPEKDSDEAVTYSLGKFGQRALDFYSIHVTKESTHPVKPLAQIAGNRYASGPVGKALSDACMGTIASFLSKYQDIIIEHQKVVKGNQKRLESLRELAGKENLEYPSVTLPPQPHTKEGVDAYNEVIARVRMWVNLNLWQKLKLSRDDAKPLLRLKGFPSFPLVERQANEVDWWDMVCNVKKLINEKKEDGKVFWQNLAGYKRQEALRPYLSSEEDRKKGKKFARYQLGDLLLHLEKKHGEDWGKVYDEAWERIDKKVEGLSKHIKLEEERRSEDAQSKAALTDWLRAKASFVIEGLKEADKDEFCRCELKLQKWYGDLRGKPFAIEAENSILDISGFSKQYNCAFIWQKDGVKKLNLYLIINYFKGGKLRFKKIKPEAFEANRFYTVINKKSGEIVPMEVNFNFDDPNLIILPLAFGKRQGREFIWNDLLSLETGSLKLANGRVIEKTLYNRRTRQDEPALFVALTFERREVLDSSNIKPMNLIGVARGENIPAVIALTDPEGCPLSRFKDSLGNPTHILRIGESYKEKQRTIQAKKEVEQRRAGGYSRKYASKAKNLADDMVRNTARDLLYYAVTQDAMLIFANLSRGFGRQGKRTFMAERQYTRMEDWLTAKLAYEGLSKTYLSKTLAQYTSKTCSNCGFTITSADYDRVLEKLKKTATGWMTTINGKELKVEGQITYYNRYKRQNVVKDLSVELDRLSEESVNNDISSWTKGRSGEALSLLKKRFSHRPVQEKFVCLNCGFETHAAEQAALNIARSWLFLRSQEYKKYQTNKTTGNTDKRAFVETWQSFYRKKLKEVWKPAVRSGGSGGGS

ELXR4-ZIM3 (#4.A) = target: T3, ELXR4-ZIM3 (#4.A) (synthetic construct); assay: cell_activity; PAM TTC; day 73; settings: tags: DNMT3A CD, DNMT3L ID, ZIM3 KRAB fusion, NLS
T3 chain: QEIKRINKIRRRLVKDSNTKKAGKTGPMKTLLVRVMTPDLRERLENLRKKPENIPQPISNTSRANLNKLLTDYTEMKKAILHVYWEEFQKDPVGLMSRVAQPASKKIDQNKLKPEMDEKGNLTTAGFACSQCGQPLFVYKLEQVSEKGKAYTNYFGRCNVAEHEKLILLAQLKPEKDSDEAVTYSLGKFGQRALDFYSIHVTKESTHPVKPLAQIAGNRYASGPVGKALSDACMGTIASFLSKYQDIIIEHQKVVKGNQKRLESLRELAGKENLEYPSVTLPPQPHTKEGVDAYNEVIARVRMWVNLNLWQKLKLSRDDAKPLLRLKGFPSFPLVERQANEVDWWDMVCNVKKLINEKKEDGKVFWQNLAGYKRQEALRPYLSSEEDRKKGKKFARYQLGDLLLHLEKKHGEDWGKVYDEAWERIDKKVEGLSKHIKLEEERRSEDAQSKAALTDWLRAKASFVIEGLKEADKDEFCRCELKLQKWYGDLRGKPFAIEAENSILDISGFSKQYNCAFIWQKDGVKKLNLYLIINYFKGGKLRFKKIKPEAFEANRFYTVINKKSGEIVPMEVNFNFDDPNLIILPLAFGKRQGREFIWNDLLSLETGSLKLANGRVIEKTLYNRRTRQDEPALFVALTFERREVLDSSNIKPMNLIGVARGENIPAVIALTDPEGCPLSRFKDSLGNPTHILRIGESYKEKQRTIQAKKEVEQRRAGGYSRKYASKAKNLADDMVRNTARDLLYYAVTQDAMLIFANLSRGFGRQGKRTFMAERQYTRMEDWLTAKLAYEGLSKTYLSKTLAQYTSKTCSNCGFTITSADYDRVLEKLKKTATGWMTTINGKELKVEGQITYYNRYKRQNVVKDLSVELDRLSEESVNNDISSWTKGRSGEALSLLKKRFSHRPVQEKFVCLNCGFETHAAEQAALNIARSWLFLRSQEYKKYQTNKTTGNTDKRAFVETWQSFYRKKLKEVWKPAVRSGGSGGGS

ELXR5-ZIM3 (#5.A) = ELXR5-ZIM3 (#5.A) (synthetic construct); assay: cell_activity; PAM TTC; day 73; settings: tags: DNMT3A CD, DNMT3L ID, ZIM3 KRAB fusion, NLS
Chain of ELXR5-ZIM3 (#5.A) (synthetic construct) (chain, as listed by the source): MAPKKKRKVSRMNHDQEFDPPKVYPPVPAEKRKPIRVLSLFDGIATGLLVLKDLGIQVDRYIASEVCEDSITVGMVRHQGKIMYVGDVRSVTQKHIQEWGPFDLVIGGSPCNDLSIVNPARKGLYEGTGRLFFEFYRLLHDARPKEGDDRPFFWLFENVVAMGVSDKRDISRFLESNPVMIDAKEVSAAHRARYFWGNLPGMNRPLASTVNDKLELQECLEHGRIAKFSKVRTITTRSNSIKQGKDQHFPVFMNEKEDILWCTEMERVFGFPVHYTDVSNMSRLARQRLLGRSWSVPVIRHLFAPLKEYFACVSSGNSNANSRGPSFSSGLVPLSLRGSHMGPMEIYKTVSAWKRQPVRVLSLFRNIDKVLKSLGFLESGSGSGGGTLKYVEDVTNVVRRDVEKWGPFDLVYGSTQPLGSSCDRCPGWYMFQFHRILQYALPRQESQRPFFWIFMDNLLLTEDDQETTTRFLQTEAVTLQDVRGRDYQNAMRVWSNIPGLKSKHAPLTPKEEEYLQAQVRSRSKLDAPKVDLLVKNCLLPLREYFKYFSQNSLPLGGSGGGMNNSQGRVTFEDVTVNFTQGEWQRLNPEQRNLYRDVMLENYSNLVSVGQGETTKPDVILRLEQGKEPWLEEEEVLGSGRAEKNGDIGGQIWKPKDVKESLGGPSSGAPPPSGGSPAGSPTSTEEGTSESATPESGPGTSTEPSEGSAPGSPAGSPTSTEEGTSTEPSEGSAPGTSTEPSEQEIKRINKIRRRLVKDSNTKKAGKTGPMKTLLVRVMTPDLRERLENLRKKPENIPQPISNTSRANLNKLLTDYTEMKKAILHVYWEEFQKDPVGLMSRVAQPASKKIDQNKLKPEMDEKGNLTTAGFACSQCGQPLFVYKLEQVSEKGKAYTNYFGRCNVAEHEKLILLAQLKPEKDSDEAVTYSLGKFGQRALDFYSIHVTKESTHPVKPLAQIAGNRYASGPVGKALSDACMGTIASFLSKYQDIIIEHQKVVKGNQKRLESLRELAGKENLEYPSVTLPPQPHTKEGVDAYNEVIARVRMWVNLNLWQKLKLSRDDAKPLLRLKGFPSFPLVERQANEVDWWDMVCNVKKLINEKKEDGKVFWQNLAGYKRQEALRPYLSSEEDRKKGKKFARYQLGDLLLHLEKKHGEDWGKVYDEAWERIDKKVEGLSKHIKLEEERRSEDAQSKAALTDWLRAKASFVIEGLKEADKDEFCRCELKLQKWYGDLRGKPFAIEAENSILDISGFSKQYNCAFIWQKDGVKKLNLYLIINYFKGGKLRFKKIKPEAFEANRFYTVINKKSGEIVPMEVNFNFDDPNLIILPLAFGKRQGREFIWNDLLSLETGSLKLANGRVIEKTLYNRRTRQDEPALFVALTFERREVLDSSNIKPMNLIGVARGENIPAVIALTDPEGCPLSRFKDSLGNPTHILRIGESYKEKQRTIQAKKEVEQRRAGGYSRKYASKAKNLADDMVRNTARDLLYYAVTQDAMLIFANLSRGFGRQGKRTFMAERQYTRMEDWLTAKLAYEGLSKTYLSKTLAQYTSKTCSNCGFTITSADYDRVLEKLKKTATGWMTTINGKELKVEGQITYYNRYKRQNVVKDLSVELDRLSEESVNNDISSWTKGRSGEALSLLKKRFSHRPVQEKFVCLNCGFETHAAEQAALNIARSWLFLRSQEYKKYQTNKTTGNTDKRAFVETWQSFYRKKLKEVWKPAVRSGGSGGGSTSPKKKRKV

ELXR5-ZNF10 (#5.B) = ELXR5-ZNF10 (#5.B) (synthetic construct); assay: cell_activity; PAM TTC; day 73; settings: tags: DNMT3A CD, DNMT3L ID, ZNF10 KRAB fusion, NLS
Chain of ELXR5-ZNF10 (#5.B) (synthetic construct) (chain, as listed by the source): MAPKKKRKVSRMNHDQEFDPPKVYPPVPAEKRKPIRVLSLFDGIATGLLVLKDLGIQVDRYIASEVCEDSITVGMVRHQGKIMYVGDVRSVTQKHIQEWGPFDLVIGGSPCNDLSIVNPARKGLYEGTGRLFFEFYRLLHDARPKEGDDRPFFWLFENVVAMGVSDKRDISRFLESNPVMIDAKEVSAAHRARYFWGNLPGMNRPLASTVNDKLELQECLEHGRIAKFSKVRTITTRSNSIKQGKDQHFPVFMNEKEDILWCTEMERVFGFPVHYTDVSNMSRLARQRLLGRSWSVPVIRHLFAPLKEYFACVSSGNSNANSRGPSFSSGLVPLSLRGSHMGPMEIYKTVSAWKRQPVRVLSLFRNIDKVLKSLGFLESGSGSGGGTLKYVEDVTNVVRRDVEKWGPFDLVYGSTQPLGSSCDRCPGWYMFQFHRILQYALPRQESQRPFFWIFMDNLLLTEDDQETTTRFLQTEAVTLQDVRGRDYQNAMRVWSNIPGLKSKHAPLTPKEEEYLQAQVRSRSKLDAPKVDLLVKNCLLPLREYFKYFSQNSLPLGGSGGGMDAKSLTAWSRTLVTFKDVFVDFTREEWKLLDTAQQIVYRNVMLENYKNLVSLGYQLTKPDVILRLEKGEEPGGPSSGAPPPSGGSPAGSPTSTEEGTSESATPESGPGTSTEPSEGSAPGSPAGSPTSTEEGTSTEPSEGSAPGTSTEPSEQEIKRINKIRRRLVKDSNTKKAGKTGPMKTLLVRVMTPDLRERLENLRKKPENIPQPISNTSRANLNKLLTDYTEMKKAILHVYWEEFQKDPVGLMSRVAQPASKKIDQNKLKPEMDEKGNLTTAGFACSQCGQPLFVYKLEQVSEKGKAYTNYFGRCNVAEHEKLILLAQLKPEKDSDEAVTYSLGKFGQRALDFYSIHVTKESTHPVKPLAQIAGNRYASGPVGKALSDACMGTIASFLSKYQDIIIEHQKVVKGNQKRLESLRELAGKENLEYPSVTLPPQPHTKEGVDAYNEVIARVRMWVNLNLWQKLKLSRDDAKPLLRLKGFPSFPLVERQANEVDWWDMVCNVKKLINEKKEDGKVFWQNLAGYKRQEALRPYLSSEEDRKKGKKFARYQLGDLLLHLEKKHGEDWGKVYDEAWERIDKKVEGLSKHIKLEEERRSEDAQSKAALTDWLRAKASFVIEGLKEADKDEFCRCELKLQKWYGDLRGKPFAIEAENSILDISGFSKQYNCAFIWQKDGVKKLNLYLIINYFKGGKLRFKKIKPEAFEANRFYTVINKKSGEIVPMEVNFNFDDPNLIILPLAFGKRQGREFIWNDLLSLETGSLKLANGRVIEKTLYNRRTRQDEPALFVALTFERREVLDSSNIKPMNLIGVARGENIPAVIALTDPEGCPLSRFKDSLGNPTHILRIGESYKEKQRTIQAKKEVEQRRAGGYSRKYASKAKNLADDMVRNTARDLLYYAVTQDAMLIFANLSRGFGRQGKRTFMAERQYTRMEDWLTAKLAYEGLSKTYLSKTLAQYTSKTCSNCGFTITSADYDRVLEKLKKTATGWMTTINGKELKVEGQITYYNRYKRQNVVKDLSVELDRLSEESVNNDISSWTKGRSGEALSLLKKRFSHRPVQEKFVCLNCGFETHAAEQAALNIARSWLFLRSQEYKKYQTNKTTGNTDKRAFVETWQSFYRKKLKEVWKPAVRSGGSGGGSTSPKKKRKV

B1: gRNA scaffold 174 + spacer 7.37 ; B2M target 7.37 (ssRNA ; dsDNA)
RNA: ACUGGCGCUUUUAUCUGAUUACUUUGAGAGCCAUCACCAGCGACUAUGUCGUAGUGGGUAAAGCUCCCUCUUCGGAGGGAGCAUCAAAGGGCCGAGAUGUCUCGCUCCG
DNA 1: GGCCGAGATGTCTCGCTCCG
DNA 2: CGGAGCGAGACATCTCGGCC
B1 gave an activity (ELXR3-ZIM3 (#3.A)) of 17.5 % HLA-negative cells, an activity (ELXR4-ZNF10 (#4.B)) of 55.2 % HLA-negative cells and an activity (ELXR4-ZIM3 (#4.A)) of 69 % HLA-negative cells. It also gave an activity (ELXR5-ZIM3 (#5.A)) of 74.9 % HLA-negative cells and an activity (ELXR5-ZNF10 (#5.B)) of 60.8 % HLA-negative cells.
